Data as given in publication PMC4120848.
Like-named read-outs stand apart in the source and are kept apart here.

How the values were obtained:
Experiment in all cases: mMAPS
[1] = biological target: endogenous EGFR (HeLa cells) (human (endogenous in HeLa)) (UniProt P00533)
[2] = biological target: endogenous EGFR phosphorylated at Tyr1068 (HeLa cells) (human (endogenous in HeLa)) (UniProt P00533)
[3] = biological target: endogenous EGFR (HeLa cells) (human (endogenous in HeLa)) (UniProt P00533); remark: listed apart in the source
[4] = biological target: endogenous EGFR phosphorylated at Tyr1068 (HeLa cells) (human (endogenous in HeLa)) (UniProt P00533); remark: listed apart in the source

percent of total detected EGFR events that are EGF-EGFR [1]: 4.35% | percent of total detected EGFR events that are EGF-EGFR-pTyr1068 [2]: 2.64% | percent of total detected EGFR events that are EGF-EGFR [3]: 3.3% | percent of total detected EGFR events that are EGF-EGFR-pTyr1068 [4]: 1.27%
Substance: A647-conjugated EGF (ligand)
